Data on 15 molecules can be found in patent US20190002588A1 (NATIONAL UNIVERSITY CORPORATION CHIBA UNIVERSITY, published 2019).

Where a chain is given by its changes, count along the chain named. Names and notes keep the numbering of the source.

The target of one test is T1, human Myl9-His (human, UniProt P24844 2-172, limits assumed).
T1 construct: Made in E. coli; the GST tag was cleaved with PreScission Protease
T1 sequence: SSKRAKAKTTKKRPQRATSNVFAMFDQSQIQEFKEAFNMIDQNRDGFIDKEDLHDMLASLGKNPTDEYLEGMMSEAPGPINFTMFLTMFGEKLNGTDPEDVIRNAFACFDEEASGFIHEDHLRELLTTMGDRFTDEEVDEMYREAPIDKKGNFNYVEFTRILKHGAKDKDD
As to the kind of experiment: ELISA, human Myl9-His coated, anti-human IgG-HRP. On the procedure:
(§1) The binding ability against human Myl9 was evaluated following the steps below by ELISA. Human Myl3-His and human Myl9-His were coated onto the wells of a 96-well plate (Nunc). After an overnight incubation at 4° C., the wells were blocked at room temperature for one hour with 1× Block Ace (DS Pharma Biomedical Co., Ltd.). After washing three times with 0.02% Tween 20/PBS, seven serial dilutions by six folds of the chimeric and humanized antibodies were made from a concentration of 10 μg/mL and added to the wells. After incubation at room temperature for one hour and washing three times, horseradish peroxidase-labeled anti-human IgG antibody (Jackson ImmunoResearch Laboratories) was added, and this was incubated at room temperature for one hour. After washing 5 times, TMBZ (3,3′,5,5′-tetramethylbenzidine) solution was added to the wells, and this was incubated for 5-20 minutes at room temperature. An equal amount of reaction quenching solution (2N H₂SO₄) was added to the wells, and absorbance at 450 nm was read with a microplate reader (PerkinElmer).

A further test addresses T2, human Myl3-His (human, UniProt P08590 2-195, limits assumed).
T2 construct: Made in E. coli; the GST tag was cleaved with PreScission Protease
Description: ELISA, human Myl3-His coated, anti-human IgG-HRP. On the procedure:
as §1
On the technique in general: In an ELISA, binding on a coated surface is turned into a signal by an enzyme label.

The next test concerns the target T3, human Myl12a-His (human, UniProt P19105 1-171).
T3 construct: Made in E. coli; GST tag cleaved with PreScission Protease; DTT-treated monomer
T3 sequence: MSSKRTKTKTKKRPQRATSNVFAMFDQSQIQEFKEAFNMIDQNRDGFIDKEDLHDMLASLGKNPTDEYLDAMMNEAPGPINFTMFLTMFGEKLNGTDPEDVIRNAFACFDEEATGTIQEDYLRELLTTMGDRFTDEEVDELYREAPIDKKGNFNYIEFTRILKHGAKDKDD
Description: ELISA, human Myl12a-His coated, anti-human IgG-HRP. On the procedure:
(§2) The binding ability of chimeric and humanized antibodies prepared from Antibody A against human Myl12a and Myl12b was evaluated following the steps below by ELISA. Human Myl3-His, human Myl9-His, human Myl12a-His and human Myl12b-His were coated onto the wells of a 96-well plate (Nunc), respectively. After an overnight incubation at 4° C., the wells were blocked at room temperature for one hour with 1× Block Ace (DS Pharma Biomedical Co., Ltd.). After washing three times with 0.02% Tween 20/PBS, the chimeric and humanized antibodies were diluted at the concentration of 0.01, 0.1 and 1 μg/mL, respectively and added to the wells. After incubation at room temperature for one hour and washing three times, horseradish peroxidase-labeled anti-human IgG antibody (Jackson ImmunoResearch Laboratories) was added, and this was incubated at room temperature for one hour. After washing 5 times, TMBZ (3,3′,5,5′-tetramethylbenzidine) solution was added to the wells, and this was incubated for 5-20 minutes at room temperature. An equal amount of reaction quenching solution (2N H₂SO₄) was added to the wells, and absorbance at 450 nm was read with a microplate reader (Thermo Scientific).

Another test concerns the target T4, human Myl12b-His (human, UniProt O14950 1-172).
T4 construct: Made in E. coli; GST tag cleaved with PreScission Protease; DTT-treated monomer
T4 sequence: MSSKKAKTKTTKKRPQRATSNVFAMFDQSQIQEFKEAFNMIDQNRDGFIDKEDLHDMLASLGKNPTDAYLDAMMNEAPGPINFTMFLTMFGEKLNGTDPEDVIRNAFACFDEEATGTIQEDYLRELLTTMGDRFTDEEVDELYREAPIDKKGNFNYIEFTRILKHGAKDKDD
Description: ELISA, human Myl12b-His coated, anti-human IgG-HRP. On the procedure: as §2

T2 sequence (P08590 2-195 limits assumed): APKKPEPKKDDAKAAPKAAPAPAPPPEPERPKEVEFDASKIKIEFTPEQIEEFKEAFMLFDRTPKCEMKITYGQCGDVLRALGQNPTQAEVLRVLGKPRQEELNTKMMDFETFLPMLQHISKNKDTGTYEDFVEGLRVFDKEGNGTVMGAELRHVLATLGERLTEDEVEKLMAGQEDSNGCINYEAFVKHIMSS

B1: Humanized antibody No. 131 (antibody, human IgG2, kappa)
heavy: QVQLVQSGSELKKPGASVKVSCKASGYTFTDYEMHWVRQAPGQGLEWMGAIDPETGGTAYNQKFKGRFVFSLDTSVSTAYLQISSLKAEDTAVYYCADYDYDGFAYWGQGTLVTVSSASTKGPSVFPLAPCSRSTSESTAALGCLVKDYFPEPVTVSWNSGALTSGVHTFPAVLQSSGLYSLSSVVTVPSSNFGTQTYTCNVDHKPSNTKVDKTVERKCCVECPPCPAPPAAAPSVFLFPPKPKDTLMISRTPEVTCVVVDVSHEDPEVQFNWYVDGVEVHNAKTKPREEQFNSTFRVVSVLTVVHQDWLNGKEYKCKVSNKGLPAPIEKTISKTKGQPREPQVYTLPPSREEMTKNQVSLTCLVKGFYPSDIAVEWESNGQPENNYKTTPPMLDSDGSFFLYSKLTVDKSRWQQGNVFSCSVMHEALHNHYTQKSLSLSPG
light: DIVMTQSPLSLPVTPGEPASISCRSSQSLVHSNGNTYLHWYLQKPGQSPQLLISKVSNRFSGVPDRFSGSGSGTDFTLKISRVEAEDVGVYFCSQNTHVPPLTFGGGTKVEIKRTVAAPSVFIFPPSDEQLKSGTASVVCLLNNFYPREAKVQWKVDNALQSGNSQESVTEQDSKDSTYSLSSTLTLSKADYEKHKVYACEVTHQGLSSPVTKSFNRGEC
notes: human IgG2 (V234A, G237A, C-terminal Lys deleted) / kappa; Expi293F, Protein A purified; also called HK3-2/L1-4
As to B1, the binding result with human Myl9-His is recorded as “binds”; in the test with human Myl3-His, “no binding (tested: 10 µg/mL)”; with human Myl12a-His it was “binds”; with human Myl12b-His, “binds”.

B2: Humanized antibody No. 134 (antibody, human IgG2, kappa, V domains shown)
VH: QVQLVQSGSELKKPGASVKVSCKASGYTFTDYEMHWVRQAPGQGLEWMGAIDPETGGTAYNQKFKGRFVFSLDTSVSTAYLQISSLKAEDTAVYYCADYDYDGFAYWGQGTLVTVSS
VL: DIVMTQTPLSSPVTLGQPASISCRSSQSLVHSNGNTYLHWYQQRPGQPPRLLISKVSNRFSGVPDRFSGSGAGTDFTLKISRVEAEDVGVYFCSQNTHVPPLTFGGGTKVEIKR
notes: human IgG2 (V234A, G237A, C-terminal Lys deleted) / kappa; Expi293F, Protein A purified; also called HK3-2/L4-2
For B2, the binding result was “binds” with human Myl9-His, “no binding (tested: 10 µg/mL)” in the test with human Myl3-His, “binds” in the test with human Myl12a-His and “binds” with human Myl12b-His.

B3: Humanized antibody No. 133 (antibody, human IgG2, kappa)
heavy: B1 heavy
light: B1 light with P12S, V13I, P18Q
notes: human IgG2 (V234A, G237A, C-terminal Lys deleted) / kappa; Expi293F, Protein A purified; also called HK3-2/L1-5
As to B3, the binding result is “binds” in the test with human Myl9-His, “no binding (tested: 10 µg/mL)” in the test with human Myl3-His, “binds” in the test with human Myl12a-His and “binds” in the test with human Myl12b-His.

B4: Humanized antibody No. 132 (antibody, human IgG2, kappa)
heavy: B1 heavy
light: B1 light with I2V
notes: human IgG2 (V234A, G237A, C-terminal Lys deleted) / kappa; Expi293F, Protein A purified; also called HK3-2/L1-A
As for B4, the binding result is listed as “binds” with human Myl9-His, “no binding (tested: 10 µg/mL)” with human Myl3-His, “binds” in the test with human Myl12a-His and “binds” with human Myl12b-His.

B5: Humanized antibody No. 117 (antibody, human IgG2, kappa, V domains shown)
VH: QVQLVQSGAEVKKPGASVKVSCKASGYTFTDYEMHWVRQAPGQGLEWMGAIDPETGGTAYNQKFKGRATMTADTSTSTAYMELSSLRSEDTAVYYCADYDYDGFAYWGQGTLVTVSS
VL: DIVMTQSPLSLSITPGEQASISCRSSQSLVHSNGNTYLHWYLQKPGQSPQLLISKVSNRFSGVPDRFSGSGSGTDFTLKISRVEAEDVGVYFCSQNTHVPPLTFGGGTKVEIKR
notes: human IgG2 (V234A, G237A, C-terminal Lys deleted) / kappa; Expi293F, Protein A purified; also called HK2-6/L1-5
As to B5, the binding result with human Myl9-His is recorded as “binds”; in the test with human Myl3-His, “no binding (tested: 10 µg/mL)”; in the test with human Myl12a-His, “binds”; in the test with human Myl12b-His it was “binds”.

B6: Humanized antibody No. 122 (antibody, human IgG2, kappa, V domains shown)
VH: B5 VH with A16S, N61A, K65Q, M70I, T74K, S84R
VL: B2 VL
notes: human IgG2 (V234A, G237A, C-terminal Lys deleted) / kappa; Expi293F, Protein A purified; also called HA1-4/L4-2
Consider B6, for which the binding result with human Myl9-His is given as “binds”; with human Myl3-His, “no binding (tested: 10 µg/mL)”; with human Myl12a-His it was “binds”; with human Myl12b-His, “binds”.

B7: Humanized antibody No. 126 (antibody, human IgG2, kappa, V domains shown)
VH: B5 VH with A16S, T30S, M48I, M70I, T74K, S84R, A97T
VL: B2 VL
notes: human IgG2 (V234A, G237A, C-terminal Lys deleted) / kappa; Expi293F, Protein A purified; also called HK1-A/L4-2
Turning to B7, the binding result is on record as “binds” with human Myl9-His, “no binding (tested: 10 µg/mL)” with human Myl3-His, “binds” in the test with human Myl12a-His and “binds” in the test with human Myl12b-His.

B8: Humanized antibody No. 129 (antibody, human IgG2, kappa, V domains shown)
VH: B5 VH with A68V, T74K
VL: B2 VL
notes: human IgG2 (V234A, G237A, C-terminal Lys deleted) / kappa; Expi293F, Protein A purified; also called HK2-9/L4-2
Regarding B8, the binding result with human Myl9-His is on record as “binds”; with human Myl3-His, “no binding (tested: 10 µg/mL)”; with human Myl12a-His, “binds”; with human Myl12b-His, “binds”.

B9: Humanized antibody No. 125 (antibody, human IgG2, kappa, V domains shown)
VH: B5 VH with A16S, Y27G, T30S, M70I, T74K, S84R
VL: B2 VL
notes: human IgG2 (V234A, G237A, C-terminal Lys deleted) / kappa; Expi293F, Protein A purified; also called HK1-4/L4-2
Turning to B9, the binding result with human Myl9-His is listed as “binds”; in the test with human Myl3-His, “no binding (tested: 10 µg/mL)”; with human Myl12a-His, “binds”; with human Myl12b-His it was “binds”.

B10: Humanized antibody No. 121 (antibody, human IgG2, kappa, V domains shown)
VH: B5 VH with A16S, N61A, K65Q, A68V, M70I, T74K, S84R
VL: B2 VL
notes: human IgG2 (V234A, G237A, C-terminal Lys deleted) / kappa; Expi293F, Protein A purified; also called HA1-6/L4-2
On to B10, for which the binding result with human Myl9-His is listed as “binds”; in the test with human Myl3-His it was “no binding (tested: 10 µg/mL)”; with human Myl12a-His, “binds”; with human Myl12b-His it was “binds”.

B11: Humanized antibody No. 127 (antibody, human IgG2, kappa, V domains shown)
VH: B5 VH with A68V
VL: B2 VL
notes: human IgG2 (V234A, G237A, C-terminal Lys deleted) / kappa; Expi293F, Protein A purified; also called HK2-5/L4-2
With B11, the binding result is on record as “binds” with human Myl9-His, “no binding (tested: 10 µg/mL)” with human Myl3-His, “binds” with human Myl12a-His and “binds” with human Myl12b-His.

B12: Humanized antibody No. 123 (antibody, human IgG2, kappa, V domains shown)
VH: B5 VH with A16S, Y27G, T30S, A68V, M70I, T74K
VL: B2 VL
notes: human IgG2 (V234A, G237A, C-terminal Lys deleted) / kappa; Expi293F, Protein A purified; also called HK1-5/L4-2
Turning to B12, the binding result is on record as “binds” in the test with human Myl9-His, “no binding (tested: 10 µg/mL)” in the test with human Myl3-His, “binds” in the test with human Myl12a-His and “binds” in the test with human Myl12b-His.

B13: Humanized antibody No. 128 (antibody, human IgG2, kappa, V domains shown)
VH: B5 VH
VL: B2 VL
notes: human IgG2 (V234A, G237A, C-terminal Lys deleted) / kappa; Expi293F, Protein A purified; also called HK2-6/L4-2
As to B13, the binding result was “binds” with human Myl9-His, “no binding (tested: 10 µg/mL)” with human Myl3-His, “binds” with human Myl12a-His and “binds” in the test with human Myl12b-His.

B14: Humanized antibody No. 118 (antibody, human IgG2, kappa, V domains shown)
VH: B5 VH with A68V, T74K
VL: B5 VL
notes: human IgG2 (V234A, G237A, C-terminal Lys deleted) / kappa; Expi293F, Protein A purified; also called HK2-9/L1-5
Regarding B14, the binding result with human Myl9-His is “binds”; with human Myl3-His, “no binding (tested: 10 µg/mL)”; with human Myl12a-His, “binds”; with human Myl12b-His it was “binds”.

B15: Humanized antibody No. 124 (antibody, human IgG2, kappa, V domains shown)
VH: B5 VH with A16S, Y27G, T30S, A68V, M70I, T74K, S84R
VL: B2 VL
notes: human IgG2 (V234A, G237A, C-terminal Lys deleted) / kappa; Expi293F, Protein A purified; also called HK1-6/L4-2
In the case of B15, the binding result with human Myl9-His was “binds”; in the test with human Myl3-His, “no binding (tested: 10 µg/mL)”; with human Myl12a-His it was “binds”; in the test with human Myl12b-His, “binds”.
